B1: antibody 158, full-length IgG (antibody, V domains shown)
VH: EVQLLESGGDLIQPGGSLRLSCAASGVTVSSNYMSWVRQAPGKGLEWVSIIYPGGSTFYADSVKGRFTISRDNSKNTLYLQMHSLRAEDTAVYYCARDLGSGDMDVWGKGTTVTVSS
VL: DIVMTQSPSFLSASVGDRVTITCRASQGISSYLAWYQQKPGKAPKLLIQAASTLQSGVPSRFSGSGSGTEFTLTISSLQPEDFATYYCQQLNSYRYTFGQGTKVEIK
notes: also called mAb 158; 158 IgG
B2: antibody 88, full-length IgG (antibody, V domains shown)
VH: QLQLQESGPGLVKPSQTLSLTCTVSGGSISSGSYNWTWIRQPAGKGLEWIGRIYNSGSTNYNPSLKSRVTISVDTSKNQLSLKVRSVTAADTAVYYCARHCSGGTCYPKYYYGMDVWGQGTTVTVSS
VL: QSALTQPPSVSEAPRQRVTISCSGSSSNIGNNAVNWYQQFPGKAPKLLIYYDDLLPSGVSDRFSGSKSGTSASLAISGVQSEDEADYYCAAWDDSLNVVVFGGGTKLTVL
notes: also called mAb 88; 88 IgG
B3: antibody 159, full-length IgG (antibody, V domains shown)
VH: EVQLVESGGGVVQPGRSLRLSCAASGFTFSSYGMHWVRQAPGKGLEWVALISYDGGNRYYADSVKGRFTISRDNSKNTLYLQMNRLRAEDTAMYYCAKDRDDGWDWYYFMDVWGKGTTVTVSS
VL: DIQLTQSPGTLSLSPGERATLSCRASQSISGNYLAWYQHKPGQAPRLLIYGASTRATGIPDRFSGSGSGTDFTLTISRLEPEDFAVYYCQQYGSSYTFGQGTKVEIK
B4: antibody 40, full-length IgG (antibody, V domains shown)
VH: QVQLVESGGGLVQPGGSLRLSCAVSGFTVSRNYMSWVRQAPGKGLEWVSLIYSGGSTFYADSVKGRFTISRDNSKNTLYLQMNSLRAEDTAVYYCARDLFHRSGYHDYWGQGTLVTVSS
VL: not shown
notes: also called mAb 40; 40 IgG
B5: antibody 316, full-length IgG (antibody, V domains shown)
VH: not shown
VL: QAVLTQPPSASGSPGQSVTISCTGTSSDVGGYNYVSWYQQHPGKAPKLMIYEVSKRPSGVPDRFSGSKSGNTASLTVSGLQAEDEADYYCSSYAGSNHWVFGGGTKLTVL
notes: also called mAb 316; 316 IgG
B6: mAb 158 (antibody, V domains shown)
VH: B1 VH
VL: B1 VL
B7: mAb 318 (antibody, V domains shown)
VH: QVQLVQSGPEVKKPGTSVKVSCKASGFTLTSSAMQWVRQARGQRLEWIGWIVVGSGNTNYAQKFQERVTITRDMSTSTAYMELSSLRSEDTAVYYCAAGRGYNSDFDYWGQGTLVTVSS
VL: AIRMTQSPGTLSLSPGERATLSCRASQSVSSSYLAWYQQRPGQAPRLLIYGTSSRATGIPDRFSGSGSGTDFTLTISRLEPEDFAVYYCQQYGYSVYTFGQGTKVDIK
B8: mAb 159 (antibody, V domains shown)
VH: B3 VH
VL: B3 VL
B9: mAb 253H165L (antibody, V domains shown)
VH: not shown
VL: DIVMTQSPGTLSLSPGERATLSCRASQSVRSSYLAWYQQKPGQAPRLLIYGASRRGTGIPDRFSGSGSGTDFTLTISRLEPEDFAVYYCQQYGSSPWTFGQGTKVEIK
B10: mAb 165 (antibody, V domains shown)
VH: QVQLVQSGPEVKKPGTSVKVSCKASGFTFTSSAVQWVRQARGQRLEWIGWIVVGSGNTNYAQKFQESVTITRDMSTSTAYMELSSLRSEDTAVYYCAAPHCIGGSCHDAFDIWGQGTMVTVSS
VL: B9 VL
B11: mAb 316 (antibody, V domains shown)
VH: not shown
VL: B5 VL
B12: mAb 88 (antibody, V domains shown)
VH: B2 VH
VL: B2 VL
B13: mAb 40 (antibody, V domains shown)
VH: B4 VH
VL: not shown
B14: antibody 150, full-length IgG (antibody, V domains shown)
VH: QVQLVESGGGLIQPGGSLRLSCAASGVTVSSNYMSWVRQAPGKGLEWVSIIYSGGTTYYADSVKGRFTISRDSSMNTLYLQMNSLRAEDTAVYYCARDLMVYGIDVWGQGTTVTVSS
VL: EIVMTQSPSSLSASVGDRVTITCRASQGISSYLAWYQQKPGKAPKLLIYAASTLQSGVPSRFSGSGSGTDFTLTISSLQPEDFATYYCQQLDSYPPGYTFGQGTKVDIK
B15: antibody 384, full-length IgG (antibody, V domains shown)
VH: EVQLVESGGGLVKPGESLRLSCAASGFTFSDYYMTWIRQAPGKGLEWVSYIRSSGHTIYYADSVKGRFTISRDNAKNSLYLQMNSLRVEDTAVYYCARGGVLRFLEWPLNAFDIWGQGTMVTVSS
VL: DIQLTQSPSSLSASVGDRVTITCRASQGISNYLAWYQQKPGKVPKLLIYAASTLQSGVPSRFSGSGSGTDFTLTISSLQPEDVATYYCQKYNNALGTFGQGTKVEIK

Molecular target: T1, SARS-CoV-2 spike protein on authentic virus, strain SARS-CoV-2/human/AUS/VIC01/2020 (Victoria) (SARS-CoV-2, UniProt P0DTC2 14-1273)
T1 construct: whole, on cells
Assay: whole-virus capture ELISA, half-maximal binding

Point of comparison: B1, Kd 0.5 nM. Against it:
- B2 — 2-fold lower, 0.25 nM
- B3 — 2.6-fold lower, 0.19 nM
- B4 — 1.5-fold lower, 0.33 nM
- B5 — 3.8-fold lower, 0.13 nM

Molecular target: T2, SARS-CoV-2 spike on whole virus (SARS-CoV-2/human/AUS/VIC01/2020, Victoria) (SARS-CoV-2, UniProt P0DTC2 14-1273)
Assay: cell-based or functional assay

Point of comparison: B10, “Neutralisation IC50 (FRNT)” value 0.021 µg/mL. Against it:
- B6 — 1.6-fold higher, 0.034 µg/mL
- B7 — within 1.5-fold, 0.015 µg/mL
- B8 — 4.2-fold lower, 0.005 µg/mL
- B9 — 7-fold lower, 0.003 µg/mL
- B11 — 2.1-fold lower, 0.01 µg/mL

Molecular target: T2, SARS-CoV-2 spike on whole virus …
Assay: not given

Point of comparison: B6, “EC50 (read off the curve)” value ~0.5 nM. Against it:
- B12 — 2.5-fold lower, ~0.2 nM
- B13 — 1.7-fold lower, ~0.3 nM
- B9 — 5-fold lower, ~0.1 nM
- B11 — 5-fold lower, ~0.1 nM

Molecular target: T1, SARS-CoV-2 spike protein on authentic …
Assay: cell-based or functional assay

Point of comparison: B2, “Neutralisation IC50” value 0.07 nM. Against it:
- B1 — 1.9-fold higher, 0.13 nM
- B3 — within 1.5-fold, 0.08 nM
- B4 — 2.3-fold higher, 0.16 nM
- B5 — within 1.5-fold, 0.08 nM

Molecular target: T1, SARS-CoV-2 spike protein on authentic …
Assay: calculated from whole-virus ELISA binding and FRNT50

Point of comparison: B1, “% Occupancy” value 20.5%. Against it:
- B2 — higher, 21.9%
- B3 — higher, 30%
- B4 — higher, 33.3%
- B5 — higher, 35.4%

Molecular target: T1, SARS-CoV-2 spike protein on authentic …
Assay: cell-based or functional assay
Remark: another data set of the same source

Point of comparison: B1, “IC50 (ug/ml), FRNT” value 0.031 µg/mL. Against it:
- B2 — within 1.5-fold, 0.033 µg/mL
- B3 — 2.8-fold lower, 0.011 µg/mL
- B4 — within 1.5-fold, 0.026 µg/mL
- B5 — 1.7-fold lower, 0.018 µg/mL

Molecular target: SARS-CoV-2 spike protein on authentic virus, strain B.1.1.7 (SARS-CoV-2, UniProt P0DTC2 14-1273)
Assay: cell-based or functional assay

Point of comparison: B15, “IC50 (ug/ml), FRNT” value 0.005 µg/mL. Against it:
- B1 — 51-fold higher, 0.254 µg/mL
- B14 — 28-fold higher, 0.139 µg/mL
- B2 — 12-fold higher, 0.058 µg/mL
- B3 — 12-fold higher, 0.061 µg/mL
- B4 — 7-fold higher, 0.035 µg/mL
- B5 — 4.8-fold higher, 0.024 µg/mL

Point of comparison: B3, “B.1.1.7/Victoria Ratio of IC50” value 5.71. Against it:
- B14 — higher, 12
